{
  "source": "patent US20220064277A1",
  "about": "(NEURACLE SCIENCE, published 2022)",
  "target": "human FAM19A5-Fc protein (Lot# 170815) (human, UniProt Q7Z5A7 44-132)",
  "sequence (Q7Z5A7 other isoform, or with tags, fused parts or gaps)": "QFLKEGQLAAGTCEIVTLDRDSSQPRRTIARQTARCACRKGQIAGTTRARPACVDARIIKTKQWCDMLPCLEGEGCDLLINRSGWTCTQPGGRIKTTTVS",
  "test": "cell-based or functional assay",
  "data": [
    {"binder": "anti-FAM19A5 antibody (clone \"1-30\"; Lot# A5m180831) (antibody, V domains shown) VH: AVTLDESGGGLQTPGGALRLSCKASGFDFESFNMFWVRQAPGKGLEYVSQISSSEEDENYAPAVKGRATISRDNGQSTLYLQMNSLRAEDTGTYYCAKSSYDCPYGHCSSGVDSAGEIDAWGHGTEVIVSS VL: ALTQPSSVSANPGETVKITCSGGGSEEEQYYYGWYQQKPGSAPVTLIYQDEERPSDIPSRFSGSTSGSTATLTITGVQAGDEADYYCGSWDSEDEDHFGAGTTLTVL", "values": [
      {"measurement": "IC50 for inhibition of the FAM19A5-Fc-enhanced TNF-α production by LPS-stimulated BV2 cells (mouse TNF-α ELISA)", "value": 11.5, "unit": "µg/mL"}
    ]}
  ]
}
